T1: His-GFP-caspase-1^CARD (wild type) (human, UniProt P29466 1-91)
T1 sequence (looked up): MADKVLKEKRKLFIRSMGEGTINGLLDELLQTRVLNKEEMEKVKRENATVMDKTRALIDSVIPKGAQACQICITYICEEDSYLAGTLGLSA


Legend:
[1] = molecular target: TAMRA-labeled caspase-1^CARD-SUMO with C-terminal sortase motif (His-MBP removed by TEV protease in the assay) (human) (UniProt P29466); experiment: fluorescence polarisation
SEC = molecular target: the molecule itself; experiment: SEC
[2] = molecular target: T1, His-GFP-caspase-1^CARD (wild type); experiment: fluorescence polarisation

Ki [2] | Molecule | further results
 | His-tagged human inhibitor of CARD (INCA) (from UniProt Q5XLA6 1-110) (natural protein) | Ki [1]: 9.4 nM
 | His-MBP-ICEBERG (natural protein, human) ADQLLRKKRRIFIHSVGAGTINALLDCLLEDEVISQEDMNKVRDENDTVMDKARVLIDLVTGKGPKSCCKFIKHLCEEDPQLASKMGLH | binding result (SEC): binds
4.3 ± 1.4 nM | His-tagged human inhibitor of CARD (INCA) (natural protein, UniProt Q5XLA6 1-110, looked up) MADKVLKEKRKQFIRSVGEGTINGLLGELLETRVLSQEEIEIVKCENATVMDKARALLDSVIRKGAPACQICITYICEEDSHLAGTLGLSAGPTSGNHLTTQDSQIVLPS | 
~1700 nM | INCA R55E (natural protein, human, UniProt Q5XLA6 1-110, looked up) MADKVLKEKRKQFIRSVGEGTINGLLGELLETRVLSQEEIEIVKCENATVMDKAEALLDSVIRKGAPACQICITYICEEDSHLAGTLGLSAGPTSGNHLTTQDSQIVLPS | 
